The record followed here is US20240018256A1 (JUNO THERAPEUTICS, published 2024).

Numbering of substitutions follows the chain as printed.

Assay [1] concerns the target T1, human CD19 (human, UniProt P15391 20-556).
T1 sequence: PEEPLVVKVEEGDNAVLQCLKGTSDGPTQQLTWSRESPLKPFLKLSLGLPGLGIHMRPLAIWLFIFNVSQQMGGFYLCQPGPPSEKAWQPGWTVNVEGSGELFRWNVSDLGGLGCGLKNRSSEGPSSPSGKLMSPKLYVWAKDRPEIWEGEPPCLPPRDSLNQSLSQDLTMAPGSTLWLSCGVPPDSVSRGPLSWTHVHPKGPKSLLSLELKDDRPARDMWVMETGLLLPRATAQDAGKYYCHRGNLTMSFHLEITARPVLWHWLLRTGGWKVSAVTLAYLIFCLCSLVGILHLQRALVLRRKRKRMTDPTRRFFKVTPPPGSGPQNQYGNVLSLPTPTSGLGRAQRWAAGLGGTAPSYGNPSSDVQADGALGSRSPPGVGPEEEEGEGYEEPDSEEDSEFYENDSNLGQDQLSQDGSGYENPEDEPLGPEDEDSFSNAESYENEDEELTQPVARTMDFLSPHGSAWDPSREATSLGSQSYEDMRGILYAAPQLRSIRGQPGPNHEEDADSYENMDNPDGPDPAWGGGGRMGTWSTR
The assay is described as follows: flow cytometry on CD19-expressing cells (n = 1). From the text:
Various clones were titrated and their binding affinity (EC50) to various CD19-expressing cells assessed by flow cytometry.
For orientation: In flow cytometry, cells or beads pass a laser one at a time.

For assay [2], the target named is T1, human CD19. Put plainly: flow cytometry, scFv titrated on CD19-expressing K562 cells (FIG. 4, another plate).
Assay [3] has as its target T1, human CD19. The assay is described as follows: flow cytometry on CD19-expressing cells (n = 4).
Assay [4] has as its target T1, human CD19. Put plainly: flow cytometry competition for binding with FMC63 (n = 1).
Assay [5] deals with T1, human CD19. Put plainly: flow cytometry on CD19-expressing cells (n = 3).
Assay [6] addresses T1, human CD19. Put plainly: flow cytometry competition for binding with FMC63 (n = 2).
For assay [7], the target named is T1, human CD19. The assay is described as follows: flow cytometry, scFv titrated on CD19-expressing K562 cells (FIG. 3A).
Assay [8] concerns the target T1, human CD19. Put plainly: flow cytometry competition for binding with FMC63 (n = 3).
Assay [9] deals with T1, human CD19. Put plainly: flow cytometry, HIS-tagged scFv bacterial supernatant on CD19-transfected HEK293 cells (FIG. 8A). From the text:
(§1) A third scFv library was generated by shuffling the VH sequences from the selection in (a) with the VL sequences resulting from the selection in (b). […] Binding by the selected scFv clones to CD19-expressing cells was confirmed by flow cytometry using bacterially-produced supernatant. The selected scFv pools were cloned into E. coli expression vectors and produced as HIS-tagged scFvs. Binding of individual clones to CD19-transfected HEK293 cells was detected with anti-HIS-Alexa647 conjugate by flow cytometry.

For assay [10], the target named is T1, human CD19. Put plainly: flow cytometry, HIS-tagged scFv bacterial supernatant on CD19-transfected HEK293 cells (FIG. 8B).
Excerpt: as §1

Assay [11] deals with T1, human CD19. Put plainly: flow cytometry, HIS-tagged scFv bacterial supernatant on CD19-transfected HEK293 cells (FIG. 8C).
Excerpt: as §1

Assay [12] deals with T1, human CD19. Put plainly: flow cytometry, scFv titrated on CD19-expressing K562 cells (FIG. 4, one plate).

B1: Clone 184 scFv (scFv, V domains shown)
VH: QVQLVESGGGLVQPGRSLRLSCAASGFTFDDYAMHWVRQAPGKGLEWVSGISWNSGRIGYADSVKGRFTISRDNAKNSLFLQMNSLRAEDTAVYYCARDQGYHYYDSAEHAFDIWGQGTMVTVSS
For orientation: EC50 means the concentration giving half of the maximal effect. Lower therefore signals a more potent agent. For B1, the 50% effective concentration (EC50) in [1] and in [2] was 114 nM throughout.

B2: Clone 328 scFv (scFv)
scFv: QVQLVESGGGLVQPGRSLRLSCAASGFTFDDYAMHWVRQAPGKGLEWVSGISWNSGRIGYADSVKGRFTISRDNAKNSLFLQMNSLRAEDTAVYYCARDQGYHYYDSAEHAFDIWGQGTVVTVSSGGGGSGGGGSGGGGSQSALTQPASVSGSPGHSITISCTGTRSDVGGFDYVSWYQHNPGKAPKLIIYDVTKRPSGVSNRFSGAKSGITASLTISGLQAEDEADYYCTSYRPGPTFVFGTGTKLTVL
notes: Human scFv
As usually defined, the IC50 is the concentration at which inhibition is half-maximal. Read a high IC50 as lower potency. Turning to B2, in assay [3], a half-maximal response (EC50) required 10.9 nM. The same molecule came in with an IC50 in assay [4] of 32.9 nM.

B3: Clone 505 scFv (scFv)
scFv: EVQLVESGGGLVQPGRSLRLSCAASGFTFDDYAMHWVRQAPGKGLEWVSGISWNSGRIGYADSVKGRFTISRDNAKNSLFLQMNSLRAEDTAVYYCARDQGYHYYDSAEHAFDIWGQGTMVTVSSQSVLTQPRSLSGSPGQSVTIACTGASTDVGGYNYVSWYQQHPGKAPKLMIYDVNKRPSGVPDRFSGSKSGNTAFLTISGLQAEDEADYYCCSYAGSYTFEVFGGGTKLTVL
B3 came in with an EC50 in assay [1] of 139 nM.

B4: Clone 1300 scFv (scFv)
scFv: QMQLVQSGGGLVQPGRSLRLSCAASGFTFDDYAMHWVRQAPGKGLEWVSGISWNSGSIGYADSVKGRFTISRDNAKNSLYLQMNSLRAEDTAVYYCARDQGYHYYDSAEHAFDIWGQGTVVTVSSGGGGSGGGGSGGGGSAIRMTQSPSTLSASVGDRVTITCRASQSISHYLAWYQQKPGKAPKLLIFDASRLASGVPSRFSGSGSGTDFTLTISSLQPEDFATYYCQQSYGAPMFTFGPGTRVDLK
notes: Human scFv
B4 had a 50% effective concentration (EC50) in assay [5] of 1.3 nM. The same molecule came in with an IC50 in assay [6] of 3.9 nM.

B5: Clone 227 scFv (scFv)
scFv: EVQLVQSGGGLVQPGRSLRLSCAASGFTFDDYAMHWVRQAPGKGLEWVSGISWNSGSIGYADSVKGRFTISRDNAKNSLYLQMNSLRAEDTAVYYCARDQGYHYYDSAEHAFDIWGQGTVVTVSSGGGGSGGGGSGGGGSDIQLTQSPSTLSASVGDRVTITCRASQSISRWLAWYQQKPGKAPKLLIYDASNLETGVPSRFSGSGSGTDFTFTISSLQPEDIATYYCQQYDNLPLTFGGGTKVEIK
notes: Human scFv
Molecule B5 displayed an EC50 in [5] of 31.8 nM. In assay [6], the IC50 was determined as 56.1 nM.

B6: Clone 192 scFv (scFv)
scFv: EVQLVESGGGLVQPGRSLRLSCAASGFTFDDYAMHWVRQAPGKGLEWVSGISWNSGRIGYADSVKGRFTISRDNAKNSLFLQMNSLRAEDTAVYYCARDQGYHYYDSAEHAFDIWGQGTMVTVSSGGGGSGGGGSGGGGSQAVLTQPRSVSGSPGQSVTISCTGISSGVDSHRYVSWYQHHPGKAPKLMIYDFSKRPSGVPDRFSGSKSGNTASLTISGLQAEDEADYYCCSYAAISPNYVFGTGTKLTVL
notes: Human scFv
B6: the results for the EC50 in assay [7] and in [2] were 12.8 nM and 12 nM, respectively.

B7: Clone 192B scFv (scFv)
scFv: B6 scFv with E1Q, C231S
notes: Human scFv
For the molecule B7, the half-maximal effective concentration (EC50) in assay [5] came out at 7.7 nM. Further, in assay [8], the half-maximal inhibitory concentration (IC50) was 15.7 nM.

B8: Clone 285 scFv (scFv)
scFv: EVQLVESGGGLVQPGRSLRLSCAASGFTFDDYAMHWVRQAPGKGLEWVSGISWNSGRIGYADSVKGRFTISRDNAKNSLFLQMNSLRAEDTAVYYCARDQGYHYYDSAEHAFDIWGQGTVVTVSSGGGGSGGGGSGGGGSQSALTQPASVSGSPGQSITISCTGTSSDLGGYNYVSWYQHRPGKAPKLIIYDVTVRPSGVSDRFSGSKSGNTASLTISGLQAEDEADYYCGSYTSSSTLLWVFGGGTKLTVL
notes: Human scFv
In the case of B8, in assay [3], the concentration giving a half-maximal response (EC50) came to 2.5 nM. The molecule further registered an IC50 in assay [8] of 9.4 nM.

B9: Clone 283 scFv (scFv)
scFv: B8 scFv with E1Q
notes: HIS- or FLAG-tagged
In the case of B9, the binding result in [9] is listed as “binds”.

B10: Clone 336 scFv (scFv)
scFv: B8 scFv with E1Q
notes: HIS- or FLAG-tagged
Take B10: in assay [10], the binding result is given as “binds”.

B11: Clone 448 scFv (scFv)
scFv: B8 scFv with E1Q, T250D, V251I, L252K
notes: HIS- or FLAG-tagged
Take B11: the binding result in assay [11] is “binds”.

B12: Clone 302 scFv (scFv)
scFv: B8 scFv with E1Q
notes: HIS- or FLAG-tagged
For the molecule B12, the binding result in assay [10] is listed as “binds”.

B13: Clone 506 scFv (scFv)
scFv: EVQLVESGGGLVQPGRSLRLSCAASGFTFDDYAMHWVRQAPGKGLEWVSGISWNSGRIGYADSVKGRFTISRDNAKNSLFLQMNSLRAEDTAVYYCARDQGYHYYDSAEHAFDIWGQGTMVTVSSGGGGSGGGGSGGGGSQLVLTQPPSVSGSPGQSVTFSCTGASSDVGGYDHVSWYQHHPGKGPKLLIYDVSKRPSGVPDRFSGSKSGNTASLTISGLQAEDEADYYCCSFAGYYTYWLFGGGTKVTVL
notes: Human scFv
B13 yielded an EC50 in [1] of 179 nM.

B14: Clone 272 scFv (scFv)
scFv: EVQLVESGGGLVQPGRSLRLSCAASGFTFDDYAMHWVRQAPGKGLEWVSGISWNSGRIGYADSVKGRFTISRDNAKNSLFLQMNSLRAEDTAVYYCARDQGYHYYDSAEHAFDIWGQGTVVTVSSGGGGSGGGGSGGGGSQSVLTQPPSVSAAPGQKVTISCSGSSSNIGNNYVSWYQQLPGTAPKLLIYDNNKRPSGIPDRFSGSKSGTSATLGITGLQTGDEADYYCGTWDSSLNRDWVFGGGTKLTVL
notes: HIS- or FLAG-tagged
As to B14, the binding result in assay [9] is reported as “binds”.

B15: Clone 79 scFv (scFv)
scFv: EVQLVESGGGLVQPGRSLRLSCAASGFTFDDYAMHWVRQAPGKGLEWVSGISWNSGRIGYADSVKGRFTISRDNAKNSLFLQMNSLRAEDTAVYYCARDQGYHYYDSAEHAFDIWGQGTVVTVSSGGGGSGGGGSGGGGSQSVLTQPPSVSAAPGQKVTISCSGSSSNIGNNYVSWYQQLPGTAPKLLIYDNNKRPSGIPDRFSGSKSGTSATLGITGLQTGDEGDYYCGTWDISLRFGVFGGGTKVTVL
notes: Human scFv
B15 gave an EC50 in [1] of 65.7 nM. In addition, the half-inhibitory concentration (IC50) in assay [4] came out at 102 nM.

B16: Clone 1 scFv (scFv)
scFv: EVQLVESGGGLVQPGRSLRLSCAASGFTFDDYAMHWVRQAPGKGLEWVSGISWNSGRIGYADSVKGRFTISRDNAKNSLFLQMNSLRAEDTAVYYCARDQGYHYYDSAEHAFDIWGQGTMVTVSSGGGGSGGGGSGGGGSQSALTQPASVSGSPGQSITISCTGTSSDVGAYNFVSWYQQLPGTAPKFLIYDNNKRPPGIPDRFSGSKSGTSATLGITGLQTGDEADYYCATWDSGLSAVVFGGGTKLTVL
notes: Human scFv
For B16, the EC50 in assay [1] and in assay [12] was 214 nM in each case.
